In the supplement of paper PMC10567573:
± gives the standard deviation.

Assay: protein stability index of a GFP-peptide fusion (GPS, HEK-293T) (PSI 1-6); higher = more stable
[1] = treatment: DMSO, c terminus: a fixed tail appended
[2] = treatment: MLN4924 1 uM, 8 h, c terminus: a fixed tail appended
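Also: 24-mer peptide tiles fused after GFP, lentivirally expressed, FACS-sorted into six equal bins by GFP/DsRed ratio, decoded by Illumina sequencing, PSI is the read-weighted mean bin number.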

Sequence | protein stability index [1] | protein stability index [2] | protein stability index (treatment: DMSO, c terminus: native) | protein stability index (treatment: MLN4924 1 uM, 8 h, c terminus: native)
KVVKSAQHYTETALDEIKLLKCVR [SRPK2] | 2.72 ± 0.32 | 2.68 ± 0.21 |  | 
KVYTHPKWNTQTKARSYSYPHCTG [ZC2HC1C] | 2.73 ± 0.36 | 2.9 ± 0.39 |  | 
KYMPHLCQDSSGEVSCQCQLHPPR | 2.76 ± 0.58 | 3.6 ± 0.9 |  | 
KYVSKELAKEIRVKAEPFIKWLKE [EIF5] | 3.08 ± 0.4 | 3.07 ± 0.46 |  | 
LAEMKDDSDSEKQQQIHHIKNLYA [VPS39] | 4.16 ± 0.25 | 4.35 ± 0.44 |  | 
LAHMIAECKKLFQVPEEMSRCRNS [DLC1] | 2.67 ± 0.34 | 2.68 ± 0.34 |  | 
LATLEGDDPSLRKTHSSPALSQGH [PSD2] | 4.44 ± 0.14 | 4.6 ± 0.16 |  | 
LCATDFKFAMYPPSMIATGSVGAA [CCND2] | 2.38 ± 0.23 | 2.38 ± 0.29 |  | 
LCGQAAGAASLPSELIVHIFSFLP [FBXO33] | 2.54 ± 0.72 | 2.29 ± 0.18 |  | 
LCPSRAELDRWLYHLEKQTALLGG [PLEKHN1] | 2.53 ± 0.21 | 2.62 ± 0.22 |  | 
LDCEGTTNKMKSPETKQRKLSPLR [KMT2E] | 5.39 ± 0.22 | 5.05 ± 0.37 |  | 
LDDSTVARELAITDSEHSDAEVSC [RETREG3] | 5.52 ± 0.23 | 5.47 ± 0.24 |  | 
LDITNPKAVLENALRNFACLTTGD [UFD1] | 2.65 ± 0.21 | 2.46 ± 0.19 |  | 
LDPASLAWLTEEEPEPAEVTSTSQ [DDIT3] | 5.51 ± 0.17 | 5.53 ± 0.31 |  | 
LDPSSGAIHVLGPIDFEESRFYEI [PCDHGC5] | 2.27 ± 0.2 | 2.25 ± 0.26 |  | 
LDSGIHSGATTTAPSLSGKGNPEE [CTNNB1] | 5.64 ± 0.29 | 5.54 ± 0.21 |  | 
LDSSHSPSSLSSSEGSSSSSSSSS [NFE2L1] | 5.51 ± 0.17 | 5.46 ± 0.15 |  | 
LDVGATEGQDLQHISNQKMPTGPP [DRICH1] | 5.18 ± 0.094 | 5.21 ± 0.091 |  | 
LDYSFGDHTSEAVRNLFGLDPSSG [PCDHGC5] | 3.55 ± 0.13 | 3.54 ± 0.38 |  | 
LEAIRKQDLVELYLTNCEKLSAKS [ZER1] | 3.06 ± 0.21 | 3.11 ± 0.36 |  | 
LEDAAGGDSASEEKSGSAEPFVLP [FBXO34] | 5.46 ± 0.37 | 5.34 ± 0.33 |  | 
LEEEIERNKESPVFAPVYFPEELH [HMOX1] | 5.32 ± 0.43 | 5.09 ± 0.57 |  | 
LEEQGATWRHRETLIIAVLVSASI [FATE1] | 2.77 ± 0.49 | 2.7 ± 0.44 |  | 

Sequence | protein stability index [1] | protein stability index [2] | protein stability index (treatment: DMSO, c terminus: native) | protein stability index (treatment: MLN4924 1 uM, 8 h, c terminus: native)
LEGYRDNAYKDLAWKHGNIHLSAP [PCMTD1] | 2.99 ± 0.35 | 2.94 ± 0.21 |  | 
LEPLSLPESPGGTTTLEGSPSVPC [ZNF277] | 5.22 ± 0.16 | 5.3 ± 0.14 |  | 
LEQQNQVLETKWELLQQLDLNNCK [KRT71] | 4.21 ± 0.21 | 4.4 ± 0.27 |  | 
LESEDWEEDNWDPELMEHTEAESE [TEX19] | 5.59 ± 0.29 | 5.53 ± 0.32 |  | 
LESRFQSKSGYLRYSCESRIRSYL [DFFB] | 2.46 ± 0.12 | 2.39 ± 0.24 |  | 
LETEIEALKEELLFMKKNHEEEVK [KRT18] | 5.1 ± 0.12 | 4.98 ± 0.098 |  | 
LEVDHIRTIYHMFIALLILFILST [SOAT1] | 2.58 ± 0.39 | 2.43 ± 0.41 |  | 
LFCAPGSWEWNELDHIMEIILGS [SERTAD3] |  |  | 3.56 ± 0.17 | 2.45 ± 0.4
LFCEVSVVQDSVNISGHTNTNTLK [SPOPL] | 2.76 ± 0.4 | 2.84 ± 0.67 |  | 
LFSKWFSESGKLVTKMFQKIQDLI [TRIP13] | 2.98 ± 0.52 | 2.49 ± 0.39 |  | 
LGISPSTCSFNPGVIVANMTEWKH [GLT8D2] | 2.59 ± 0.3 | 2.59 ± 0.23 |  | 
LGSAGAQYEKYSFRGFPPEDLMPL [P3H4] | 2.87 ± 0.52 | 2.86 ± 0.17 |  | 
LGWAQPCDVWSIGCILFEYYRGFT [CLK3] | 3.31 ± 0.71 | 2.93 ± 1.5 |  | 
LHHVKTMWYPEIKHFCPRAPVILV [RHOBTB2] | 2.65 ± 0.58 | 2.58 ± 0.87 |  | 
LIGFCMFVLSLVKKHYRLQFYMFG [CDS2] | 2.33 ± 0.61 | 2.47 ± 0.85 |  | 
LINKMLTINPSKRITAAEALKHPW [CAMK2A] | 2.16 ± 0.11 | 2.17 ± 0.18 |  | 
LIQPQDQSCWAFLPDLCLCRVFWW [FBXO39] | 2.88 ± 0.78 | 2.9 ± 0.55 |  | 
LKFDMKYMNFRVKACNKAVAGEFS [FSD1] | 2.34 ± 0.26 | 2.17 ± 0.2 |  | 
LKILKPSIPLERIHFDSYITCVSG [FBXO33] | 2.22 ± 0.41 | 2.23 ± 0.42 |  | 
LKPESSQQPGQDALAVKAGHGYDS [ZBED1] | 5.12 ± 0.33 | 5.22 ± 0.32 |  | 
LKQAKELDRERAAANEQLTRAILR [CHCHD3] | 3.56 ± 0.11 | 3.81 ± 0.2 |  | 
LLCLRAVTHREGAPPLPGAESFPG [PLEKHN1] | 3.08 ± 0.23 | 3.11 ± 0.067 |  | 
LLDADWSINAGSWMWLSCSSFFQQ [CRY1] | 2.67 ± 1.1 | 2.57 ± 0.22 |  | 

Sequence | protein stability index [1] | protein stability index [2] | protein stability index (treatment: DMSO, c terminus: native) | protein stability index (treatment: MLN4924 1 uM, 8 h, c terminus: native)
LLEPEVADGGGAPPQGGCGGGGCD [KCNA3] | 5.31 ± 0.22 | 5.35 ± 0.11 |  | 
LLESLNQQRLQGQLCDVSIRVQGR [ZBTB22] | 2.59 ± 0.21 | 2.67 ± 0.21 |  | 
LLSFKRGSALEEKENKILVKETGY [TNFSF13B] | 3.45 ± 0.38 | 3.31 ± 0.37 |  | 
LLSFLLLMDYIGINLATMNSCINP [EDNRA] | 2.58 ± 0.73 | 4.18 ± 0.46 |  | 
LLSQKKTISFLGCAIQMFSFLFLG [OR10K2] | 2.5 ± 0.69 | 2.41 ± 0.25 |  | 
LLTHRCLRDEHRCASKYGRDWERY [DHCR7] | 2.26 ± 0.27 | 2.38 ± 0.11 |  | 
LLWAKFTNSDTPTSFNHMDSDKLS [TOR1AIP2] | 2.45 ± 0.3 | 2.54 ± 0.35 |  | 
LNPGFQDATLSLKQTILDKEEKQR [TTC32] | 4.94 ± 0.15 | 4.98 ± 0.17 |  | 
LNRATQSIERSHRIATETDQIGSE [VTI1B] | 5.44 ± 0.32 | 5.34 ± 0.11 |  | 
LPAAEFHGLWDSLVYDVEVKSHLL [TRIP13] | 2.43 ± 0.22 | 2.42 ± 0.2 |  | 
LPGPAFESYESMELACPAERSGHV [KLHDC2] | 4.41 ± 0.17 | 4.45 ± 0.33 |  | 
LPQVAEEISGPLTSANKITLVSSG [FLOT1] | 3.78 ± 0.23 | 4.23 ± 0.21 |  | 
LPRSEDDDCDDDDDDAQILPSPVQ [DRICH1] | 5.5 ± 0.11 | 5.53 ± 0.27 |  | 
LPSPVQACSEDSLFLRCSLRHKDE [DRICH1] | 4.31 ± 0.15 | 4.48 ± 0.2 |  | 
LPVNSPMNKGDTEVMKCIVEVISD [CHGA] | 3.22 ± 0.2 | 3.27 ± 0.19 |  | 
LPVPPTPGLLSLATTSASDSLKPE [TFE3] | 4.87 ± 0.26 | 5.04 ± 0.29 |  | 
LPVRPQTNALIGGPMPMSMPNVMT [CLINT1] | 3.33 ± 0.11 | 3.38 ± 0.18 |  | 
LQELLTHDTKDQSPSRAPGLRQRA [HMOX1] | 4.33 ± 0.26 | 4.62 ± 0.33 |  | 
LQIASDSHQYDRIYCGAGVQKDHE [PCMTD1] | 4.24 ± 0.25 | 4.25 ± 0.28 |  | 
LQLPQLSDLGLLRLCTWLLALSPD [FANCE] | 2.89 ± 0.6 | 2.37 ± 0.3 |  | 
LQNFLLHGTKNVTNSSSLRLPRQN [WSB1] | 2.89 ± 0.16 | 3 ± 0.23 |  | 
LQNTYMGYLDYRKKAIKDLGISPS [GLT8D2] | 2.64 ± 0.24 | 2.91 ± 0.16 |  | 
LQRLDFSVRGYMMSKQRERQLRRR [RETREG3] | 3.88 ± 0.14 | 3.92 ± 0.28 |  | 

Sequence | protein stability index [1] | protein stability index [2] | protein stability index (treatment: DMSO, c terminus: native) | protein stability index (treatment: MLN4924 1 uM, 8 h, c terminus: native)
LRETKRKYESVLQLGRALTAHLYS [ARFIP2] | 2.3 ± 0.5 | 2.15 ± 0.32 |  | 
LRHKDEEEEDDDDIHITARIESDL [DRICH1] | 5.41 ± 0.12 | 5.37 ± 0.18 |  | 
LRKSIFSESRKPTVSIMEPGETRR [TRIM29] | 3.66 ± 0.32 | 3.93 ± 0.58 |  | 
LRNLSDAATKQEGMEGLLGTLVQL [CTNNB1] | 3.51 ± 0.16 | 3.03 ± 0.65 |  | 
LRQAQQNMDPKAAEEEEEEEEEVD [CCND1] | 5.64 ± 0.35 | 5.56 ± 0.33 |  | 
LRTLRDFPAEERARVLDRRGCSRV [ANKRD9] | 3.91 ± 0.32 | 4.06 ± 0.29 |  | 
LSINRYERKKNLTLALEALVQLRG [ALG2] | 2.25 ± 0.36 | 2.09 ± 0.2 |  | 
LSQRVMCNDLFKVNPFQLQQFRAD [TIAF1] | 2.48 ± 0.18 | 2.5 ± 0.32 |  | 
LSTSSSPSGTPTNLRRHVPDLESG [DLC1] | 4.65 ± 0.26 | 4.7 ± 0.21 |  | 
LSVCPLEGSREHAFQITGVWDASR [PLEKHN1] | 2.88 ± 0.24 | 3.38 ± 0.37 |  | 
LTADTKEVTASQEARGLRLSDLED [IRX6] | 5.37 ± 0.32 | 5.35 ± 0.12 |  | 
LTGLFKGDKCHSLVGKPKIFIIQA [CASP6] | 2.83 ± 0.46 | 2.93 ± 0.65 |  | 
LTRMTRVSEFLKVAEQVGIDKGDI [SNAP91] | 3.39 ± 0.23 | 3.48 ± 0.23 |  | 
LTSLHHFMHSRNLYILGNFMQLKC [PNLIPRP1] | 2.89 ± 0.32 | 2.5 ± 0.35 |  | 
LTSLLACLPAGPRVYFLKGGYETF [DUSP5] | 2.34 ± 0.42 | 2.36 ± 0.47 |  | 
LTTCTSNVAASNAKLALFYDWLFF [INTS3] | 2.33 ± 0.45 | 2.66 ± 0.54 |  | 
LVALKCTCCYFKFIIEYYNIRPAD [FBXO34] | 2.69 ± 0.38 | 2.81 ± 0.9 |  | 
LVELSAENEKLHQRVEQLTRDLAG [CEBPD] | 3.64 ± 0.61 | 3.73 ± 0.28 |  | 
LVLAAVVAWCYYSVSLRKAERLRA [MYORG] | 3.27 ± 0.64 | 3.31 ± 0.33 |  | 
LWKMKPRRNLEEDDYLHKDTGETS [STEAP1] | 4.07 ± 0.3 | 4.08 ± 0.42 |  | 
